According to patent EP4685489A2 (Roche Diagnostics GmbH, dated 2026):
Values belong to the binder of their own block, whether it stands above or below them.

What was measured:
[1] = molecular target: T1, recombinant N-terminal fragment (residues 1-330) of human cardiac-type Myosin-binding protein C3 with … (human, UniProt Q14896 1-330); experiment: Elecsys ECLIA sandwich; row antibody biotinylated (capture), second antibody ruthenylated 25H1 (detection); 2.7 pg/mL MYBPC3
T1 construct: expressed in HEK293-F cells and purified as a monomer; also called MYBPC3; N-terminal MyBPC-Fragment (1-330)
T1 sequence (Q14896 other isoform, or with tags, fused parts or gaps limits assumed): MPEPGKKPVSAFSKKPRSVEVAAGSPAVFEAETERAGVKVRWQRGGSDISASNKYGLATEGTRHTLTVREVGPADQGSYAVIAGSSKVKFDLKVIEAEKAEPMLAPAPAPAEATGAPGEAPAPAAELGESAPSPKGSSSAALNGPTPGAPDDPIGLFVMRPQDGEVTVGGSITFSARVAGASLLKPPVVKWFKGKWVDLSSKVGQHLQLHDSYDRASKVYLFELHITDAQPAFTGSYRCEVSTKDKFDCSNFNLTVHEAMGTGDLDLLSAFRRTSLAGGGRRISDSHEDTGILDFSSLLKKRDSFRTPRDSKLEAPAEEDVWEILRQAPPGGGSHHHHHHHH

[2] = molecular target: T1, recombinant N-terminal fragment …; experiment: Elecsys ECLIA sandwich; row antibody biotinylated (capture), second antibody ruthenylated 4.1.1 (detection); 0.9 pg/mL MYBPC3
[3] = molecular target: T1, recombinant N-terminal fragment …; experiment: sandwich ELISA, streptavidin MTP; row antibody biotinylated (capture), second antibody DIG-labelled 4.7.10 (detection); 2.7 pg/mL MYBPC3
[4] = molecular target: T1, recombinant N-terminal fragment …; experiment: sandwich ELISA, streptavidin MTP; row antibody biotinylated (capture), second antibody DIG-labelled 4.1.1 (detection); 2.7 pg/mL MYBPC3
[5] = molecular target: T1, recombinant N-terminal fragment …; experiment: Elecsys ECLIA sandwich; row antibody biotinylated (capture), second antibody ruthenylated 13F11 (detection); 0.9 pg/mL MYBPC3
[6] = molecular target: T1, recombinant N-terminal fragment …; experiment: Elecsys ECLIA sandwich; row antibody biotinylated (capture), second antibody ruthenylated 13F11 (detection); 2.7 pg/mL MYBPC3
[7] = molecular target: T1, recombinant N-terminal fragment …; experiment: sandwich ELISA, streptavidin MTP; row antibody biotinylated (capture), second antibody DIG-labelled 7B5 (detection); 2.7 pg/mL MYBPC3
[8] = molecular target: T1, recombinant N-terminal fragment …; experiment: Elecsys ECLIA sandwich; row antibody biotinylated (capture), second antibody ruthenylated 25H1 (detection); 0.9 pg/mL MYBPC3
[9] = molecular target: T1, recombinant N-terminal fragment …; experiment: SPR (Biacore) at 37°C, antibody captured via anti-rabbit Fc, MYBPC3 0.4-90 nM, Langmuir 1:1 fit over 2 series
[10] = molecular target: T1, recombinant N-terminal fragment …; experiment: sandwich ELISA, streptavidin MTP; row antibody biotinylated (capture), second antibody DIG-labelled 5B8 (detection); 2.7 pg/mL MYBPC3
[11] = molecular target: T1, recombinant N-terminal fragment …; experiment: Elecsys ECLIA sandwich; row antibody biotinylated (capture), second antibody ruthenylated 4.1.1 (detection); 2.7 pg/mL MYBPC3
[12] = molecular target: T1, recombinant N-terminal fragment …; experiment: Elecsys ECLIA sandwich; row antibody biotinylated (capture), second antibody ruthenylated 7B5 (detection); 0.9 pg/mL MYBPC3
[13] = molecular target: T1, recombinant N-terminal fragment …; experiment: Elecsys ECLIA sandwich; row antibody biotinylated (capture), second antibody ruthenylated 7B5 (detection); 2.7 pg/mL MYBPC3
[14] = molecular target: T1, recombinant N-terminal fragment …; experiment: Elecsys ECLIA sandwich; row antibody biotinylated (capture), second antibody ruthenylated 11F2 (detection); 2.7 pg/mL MYBPC3
[15] = molecular target: T1, recombinant N-terminal fragment …; experiment: Elecsys ECLIA sandwich; row antibody biotinylated (capture), second antibody ruthenylated 5B8 (detection); 2.7 pg/mL MYBPC3
[16] = molecular target: T1, recombinant N-terminal fragment …; experiment: sandwich ELISA, streptavidin MTP; row antibody biotinylated (capture), second antibody DIG-labelled 4.7.10 (detection); 1 ng/mL MYBPC3
[17] = molecular target: T1, recombinant N-terminal fragment …; experiment: Elecsys ECLIA sandwich; row antibody biotinylated (capture), second antibody ruthenylated 5B8 (detection); 0.9 pg/mL MYBPC3
[18] = molecular target: T1, recombinant N-terminal fragment …; experiment: Elecsys ECLIA sandwich; row antibody biotinylated (capture), second antibody ruthenylated 11F2 (detection); 0.9 pg/mL MYBPC3
[19] = molecular target: T1, recombinant N-terminal fragment …; experiment: sandwich ELISA, streptavidin MTP; row antibody biotinylated (capture), second antibody DIG-labelled 4.6.6 (detection); 1 ng/mL MYBPC3
[20] = molecular target: T1, recombinant N-terminal fragment …; experiment: sandwich ELISA, streptavidin MTP; row antibody biotinylated (capture), second antibody DIG-labelled 4.1.1 (detection); 1 ng/mL MYBPC3
[21] = molecular target: T1, recombinant N-terminal fragment …; experiment: Elecsys ECLIA sandwich; row antibody biotinylated (capture), second antibody ruthenylated 8H1 (detection); 2.7 pg/mL MYBPC3
[22] = molecular target: T1, recombinant N-terminal fragment …; experiment: Elecsys ECLIA sandwich; row antibody biotinylated (capture), second antibody ruthenylated 7D5 (detection); 2.7 pg/mL MYBPC3
[23] = molecular target: T1, recombinant N-terminal fragment …; experiment: SPR (Biacore) at 37°C, antibody captured via anti-mouse Fc, MYBPC3 0.4-90 nM, Langmuir 1:1 fit over 2 series
[24] = molecular target: T1, recombinant N-terminal fragment …; experiment: Elecsys ECLIA sandwich; row antibody biotinylated (capture), second antibody ruthenylated 8H1 (detection); 0.9 pg/mL MYBPC3
[25] = molecular target: T1, recombinant N-terminal fragment …; experiment: Elecsys ECLIA sandwich; row antibody biotinylated (capture), second antibody ruthenylated 7D5 (detection); 0.9 pg/mL MYBPC3

ratio (2.7 pg/mL) /blank [1]: 1.03
ratio (0.9 pg/mL) / blank [2]: 1.18
Ratio (Δ OD 2.7 pg/mL/blank) [3]: 0.98
Ratio (Δ OD 2.7 pg/mL/blank) [4]: 3.07
ratio (0.9 pg/mL) / blank [5]: 1.01
ratio (2.7 pg/mL) /blank [6]: 1.02
Ratio (Δ OD 2.7 pg/mL/blank) [7]: 0.98
ratio (0.9 pg/mL) / blank [8]: 1.01
Kd [9]: 0.19 nM
koff [9]: 0.00051 s⁻¹
kon [9]: 2.7e+06 M⁻¹ s⁻¹
Ratio (Δ OD 2.7 pg/mL/blank) [10]: 1.01
ratio (2.7 pg/mL) /blank [11]: 1.4
B1: monoclonal antibody 7B5 (antibody, V domains shown)
VH: QEQLEESGGGLVKPGGTLTLTCKVSGFDFSSGYDMCWVRQAPGKGLESIACIGSSSASTWYANWVNGRFTVSRSTSLNTVDLKMTSLTVADTATYFCARESSTEYYYNLWGPGTLVTVSS
VL: DIVMTQTPASVEAAVGGTVTIKCQASQSIGNALAWYQQKPGQPPKLLIYSTSYLPSGVPSRFKGGGSGAEYTLTISDLECADAATYYCQSYYVSTSSSDRSSFGGGTEVVVK
notes: Rabbit B-cell derived monoclonal IgG, expressed recombinantly in HEK293 cells; Biotinylated, DIG-labelled or ruthenylated in the sandwich assays; also called mAB 7B5; MAK<MYPBC3<rK-7B5-IgG(SPA)

ratio (0.9 pg/mL) / blank [12]: 1.11
ratio (2.7 pg/mL) /blank [13]: 1.32
ratio (2.7 pg/mL) /blank [1]: 1
ratio (2.7 pg/mL) /blank [14]: 1
ratio (2.7 pg/mL) /blank [15]: 1
Ratio (Δ OD 1 ng/mL MYBPC3) / blank [16]: 23.6
ratio (0.9 pg/mL) / blank [17]: 0.99
ratio (0.9 pg/mL) / blank [18]: 1.01
ratio (0.9 pg/mL) / blank [5]: 1.14
Ratio (Δ OD 1 ng/mL MYBPC3) / blank [19]: 3.39
ratio (2.7 pg/mL) /blank [6]: 1.32
Ratio (Δ OD 2.7 pg/mL/blank) [7]: 1.43
ratio (0.9 pg/mL) / blank [8]: 1.01
Ratio (Δ OD 1 ng/mL MYBPC3) / blank [20]: 1.09
ratio (2.7 pg/mL) /blank [21]: 1.01
ratio (2.7 pg/mL) /blank [22]: 1.09
Ratio (Δ OD 2.7 pg/mL/blank) [10]: 0.99
Kd [23]: 0.056 nM
koff [23]: 0.00012 s⁻¹
kon [23]: 2.1e+06 M⁻¹ s⁻¹
ratio (0.9 pg/mL) / blank [24]: 1.02
ratio (0.9 pg/mL) / blank [25]: 1.02
B2: monoclonal antibody 4.1.1 (antibody, V domains shown)
VH: QVQLKESGPGLVAPSQSLSITCTVSGFSLTGYGVNWVRQPPGKGLEWLGMIWGDGSTDYNSVYKSRLSISKDNSKSQVFLKMNSLQTDDTARYYCARRDTGGASMDYWGQGTSVTVSS
VL: DILMTQSPAILSVSPGERVSFSCRASQNIGTNMHWYQQRTNGSPRLLIRFASESFSGIPSRFSGTGSGTDFTLRINSVESEDIADYYCQQSYNWPFTFGAGTKLELK
notes: Mouse hybridoma monoclonal IgG; Biotinylated, DIG-labelled or ruthenylated in the sandwich assays; also called M-4.1.1; M.4.1.1
